Reference: publication PMC5667550 (SLAS discovery : advancing life sciences R & D, 2017)
Ends that are not written are not given here. * marks the point of attachment. Biotin = O=C1N[C@H]2[C@H](CS[C@H]2CCCCC(=O)*)N1

Biological target: Klebsiella pneumonia PriA protein fused to an N-terminal 6xHis purification tag (Klebsiella pneumonia, UniProt A6TGC5 1-731)
Test: AlphaScreen or HTRF

Klebsiella pneumonia PriA protein fused to an N-terminal 6xHis purification tag, sequence (A6TGC5 whole entry, the tested form may be a part): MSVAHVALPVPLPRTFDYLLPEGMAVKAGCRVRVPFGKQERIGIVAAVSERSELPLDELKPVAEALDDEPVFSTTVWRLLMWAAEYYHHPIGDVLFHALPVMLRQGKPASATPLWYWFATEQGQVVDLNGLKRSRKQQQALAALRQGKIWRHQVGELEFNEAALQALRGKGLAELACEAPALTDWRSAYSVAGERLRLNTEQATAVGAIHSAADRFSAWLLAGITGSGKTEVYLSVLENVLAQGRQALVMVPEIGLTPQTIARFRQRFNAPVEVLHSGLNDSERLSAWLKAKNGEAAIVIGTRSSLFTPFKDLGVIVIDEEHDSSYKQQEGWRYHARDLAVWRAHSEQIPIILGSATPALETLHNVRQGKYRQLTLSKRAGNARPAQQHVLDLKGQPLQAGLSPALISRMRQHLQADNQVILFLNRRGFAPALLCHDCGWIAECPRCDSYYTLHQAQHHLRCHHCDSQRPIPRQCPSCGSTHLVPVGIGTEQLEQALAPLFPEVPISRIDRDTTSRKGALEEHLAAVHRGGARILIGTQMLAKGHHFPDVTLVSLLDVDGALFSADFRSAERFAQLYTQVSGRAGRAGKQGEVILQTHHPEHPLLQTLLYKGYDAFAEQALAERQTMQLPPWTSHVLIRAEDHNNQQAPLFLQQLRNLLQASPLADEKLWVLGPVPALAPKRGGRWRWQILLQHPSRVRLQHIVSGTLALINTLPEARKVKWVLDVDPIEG

B1: N-terminally biotinylated SSBct (peptide)
peptide: Biotin-WMDFDDDIPF
binding result: binds
